From patent publication US20140343258A1 (Astellas, published 2014) come the findings set out here.

Broadly, the EC50 is the concentration needed to bring the measured effect to its halfway point. As usually defined, the Kd is the concentration at which binding is half-saturated. Broadly, the koff is the rate constant with which the complex falls apart.

The target in assay [1] is T1, human CTGF (human, UniProt P29279 27-349).
T1 construct: also called human CTGF protein; connective tissue growth factor
T1 sequence: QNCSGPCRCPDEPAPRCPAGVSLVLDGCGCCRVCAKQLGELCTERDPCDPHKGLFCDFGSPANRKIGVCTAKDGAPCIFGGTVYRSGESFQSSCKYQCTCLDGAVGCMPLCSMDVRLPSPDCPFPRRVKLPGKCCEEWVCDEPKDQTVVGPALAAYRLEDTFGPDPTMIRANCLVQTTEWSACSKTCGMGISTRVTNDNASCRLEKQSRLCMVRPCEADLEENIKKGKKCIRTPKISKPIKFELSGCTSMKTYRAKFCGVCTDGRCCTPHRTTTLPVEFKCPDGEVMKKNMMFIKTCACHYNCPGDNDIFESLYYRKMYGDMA
Put plainly: ELISA, human CTGF immobilized on the plate, HRP anti-mouse IgG detection. On the procedure: The present inventors evaluated the binding specificity of the antibody for CTGF using an ELISA method. 20 μL of PBS solution of human CTGF (1 μg/mL) was added to a Maxisorp 384 plate (Nunc, Inc.), and immobilized by being incubated overnight at 4° C. The next day, the plate was washed once with 100 μL of washing solution (TPBS: 0.05% Tween-20-containing PBS), and then 100 μL of blocking agent (1% BSA-containing PBS) was added thereto and allowed to stand at room temperature for 1 hour. After washing once with 100 μL of TBST washing solution, a series of appropriate dilutions of the purified antibody sample were prepared and added to the plate. After incubation at room temperature for 1 hour, the plate was washed three times with 100 μL of TBST washing solution, and a goat anti-mouse IgG antibody labeled with a horseradish peroxidase (HRP-goat anti-mouse IgG antibody; Zymed Laboratories, Inc.) which was diluted 5000-fold with a 0.1% BSA-containing TBST washing solution (20 μL) was added thereto. […] After adding 40 μL of TMB chromogenic reagent (Sumitomo Bakelite Co., Ltd.) thereto and allowing it to stand at room temperature for 10 minutes, 40 μL of stopping solution (2 mol/L sulfuric acid) was added thereto to stop the reaction, and the absorbance at 450 nm was measured. Each of the antibodies was tested in duplicate, and the EC50 was analyzed by curve fitting.
On the technique in general: ELISA stands for enzyme-linked immunosorbent assay.

A further assay deals with T2, monkey CTGF (monkey).
T2 construct: mature
In words: ELISA, CTGF immobilized on the plate, HRP anti-human IgG detection. On the procedure: (§1) The present inventors evaluated the binding specificity of the antibody for CTGF using an ELISA method. 20 μL of PBS solution of human CTGF (1 μg/mL) was added to a Maxisorp 384 plate (Nunc, Inc.), and immobilized by being incubated overnight at 4° C. The next day, the plate was washed once with 100 μL of washing solution (TPBS: 0.05% Tween-20-containing PBS), and then 100 μL of blocking agent (1% BSA-containing PBS) was added thereto and allowed to stand at room temperature for 1 hour. After washing once with 100 μL of TBST washing solution, a series of appropriate dilutions of the purified antibody sample were prepared and added to the plate. After incubation at room temperature for 1 hour, the plate was washed three times with 100 μL of TBST washing solution, and a goat anti-mouse IgG antibody labeled with a horseradish peroxidase (HRP-goat anti-mouse IgG antibody; Zymed Laboratories, Inc.) which was diluted 5000-fold with a 0.1% BSA-containing TBST washing solution (20 μL) was added thereto. After incubation at room temperature for 1 hour, the plate was washed three times with 100 μL of TBST washing solution. After adding 40 μL of TMB chromogenic reagent (Sumitomo Bakelite Co., Ltd.) thereto and allowing it to stand at room temperature for 10 minutes, 40 μL of stopping solution (2 mol/L sulfuric acid) was added thereto to stop the reaction, and the absorbance at 450 nm was measured. Each of the antibodies was tested in duplicate, and the EC50 was analyzed by curve fitting.
(§2) The present inventors evaluated the binding specificity of fully human 37-45 and fully human 37-45-MH1 prepared in the above Examples to human, mouse, rat and monkey CTGF using an ELISA method. Here, the same method as described in Example 4 was used, but a rabbit anti-human IgG antibody labeled with horseradish peroxidase (HRP-rabbit anti-human IgG antibody; DAKO) which was 5000-fold diluted with a 0.1% BSA-containing TBST washing solution as a secondary antibody. The test on each antibody was carried out in duplicate and EC50 was analyzed by curve fitting.

Assay [2] has as its target T1, human CTGF. Described as above. On the procedure:
as §1, §2

A further assay concerns the target T3, rat CTGF (rat, UniProt Q9R1E9 25-347).
T3 construct: mature
T3 sequence (looked up): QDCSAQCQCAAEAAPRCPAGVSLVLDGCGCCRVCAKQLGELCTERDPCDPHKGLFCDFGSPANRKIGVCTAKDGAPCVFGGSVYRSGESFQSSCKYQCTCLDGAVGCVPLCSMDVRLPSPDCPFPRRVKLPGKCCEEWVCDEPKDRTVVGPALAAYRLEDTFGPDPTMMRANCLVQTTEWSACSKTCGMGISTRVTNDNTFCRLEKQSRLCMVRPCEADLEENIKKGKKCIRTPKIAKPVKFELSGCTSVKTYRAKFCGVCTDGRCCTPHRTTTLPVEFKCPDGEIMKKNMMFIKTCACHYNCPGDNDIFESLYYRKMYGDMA
The description is as above. On the procedure:
as §1, §2

The target in another assay is T4, mouse CTGF (mouse, UniProt P29268 26-348).
T4 construct: mature
T4 sequence (looked up): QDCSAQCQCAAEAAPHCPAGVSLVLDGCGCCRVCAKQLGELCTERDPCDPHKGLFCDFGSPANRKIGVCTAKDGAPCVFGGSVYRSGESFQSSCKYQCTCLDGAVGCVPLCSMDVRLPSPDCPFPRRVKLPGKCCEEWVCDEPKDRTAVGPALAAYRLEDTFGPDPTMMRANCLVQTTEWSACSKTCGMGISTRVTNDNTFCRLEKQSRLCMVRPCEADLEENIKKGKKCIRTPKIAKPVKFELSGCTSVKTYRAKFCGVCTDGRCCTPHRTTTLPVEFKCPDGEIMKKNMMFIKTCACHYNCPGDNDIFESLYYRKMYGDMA
Described as above. On the procedure: as §1, §2

Assay [3] has as its target T1, human CTGF. In words: SPR, Biacore 2000, antibody captured on CM5 chip (Human Antibody Capture Kit), human CTGF as analyte. An excerpt: (§3) In order to measure the antigen-specific binding activity of fully human 37-45-MH1 in more detail, the present inventors carried out surface plasmon resonance (SPR) analysis. In the present Example, an anti-human CTGF antibody CLN1 (Patent Document 2) was used as a comparative antibody.
(§4) In the SPR analysis, Biacore 2000 (GE Healthcare Japan) was used to carry out analysis. An anti-CTGF antibody was immobilized on the surface of a Sensor Chip CM5 using a Human Antibody Capture Kit and an Amine Coupling Kit (GE Healthcare Japan). Serial dilution of the human CTGF acquired in Example 1 was made by HBS-EP solution (GE Healthcare Japan). 100 μL of the dilution was added to flow path at flow rate 50 μl/min. By this measurement system, the association rate constant (ka), the dissociation rate constant (kd), and the dissociation constant (KD) between the human CTGF protein and the anti-CTGF antibody were calculated using a data analysis software (BIA Evaluation).

Assay [4] addresses T1, human CTGF. Put plainly: SPR, Biacore 2000, comparison of KD with the reference antibody CLN1.
Text: as §3, §4
On the technique in general: SPR reads the build-up and loss of mass on a sensor chip optically.

B1: 37-45 (antibody, V domains shown)
VH: QVQLVQSGAEVKKPGASVKVSCKASGYTFTGYYMYWVRQAPGQGLEWMGWINPNSGGTNYSQKFQGRVTMTRDTSISTAYMELSRLRSDDTALYYCARGSKWNYPFDYWGQGTLVTVSS
VL: EIVLTQSPGTLSLSPGERATLSCRASQSVSSSYLAWYQQKPGQAPRLLIYGASRRATGIPDRFSGSGSGTDFTLTISRLEPEDFVVYFCQQYVSTPWTFGQGTKVEIKR
notes: also called 37-45 antibody
B1 displayed an EC50 in the assay with human CTGF [1] of 1.6 ng/mL.

B2: fully human 37-45 (antibody, human IgG1, kappa, V domains shown)
VH: QVQLVQSGAEVKKPGASVKVSCKASGYTFTGYYMYWVRQAPGQGLEWMGWINPNSGGTNYSQKFQGRVTMTRDTSISTAYMELSRLRSDDTALYYCARGSKWNYPFDYWGQGTLVTVSS
VL: EIVLTQSPGTLSLSPGERATLSCRASQSVSSSYLAWYQQKPGQAPRLLIYGASRRATGIPDRFSGSGSGTDFTLTISRLEPEDFVVYFCQQYVSTPWTFGQGTKVEIKR
notes: Human Ig gamma1 and human kappa constant regions, expressed in CHO-K1SV cells; The heavy-chain variable region has an N-glycosylation motif at Asn 58 (Kabat)
B2: the half-maximal effective concentration (EC50) was 0.0125 µg/mL in the assay with monkey CTGF, 0.0132 µg/mL in the assay with human CTGF [2], 0.0131 µg/mL with rat CTGF and 0.0124 µg/mL with mouse CTGF.

B3: fully human 37-45-MH1 (antibody, human IgG1, kappa, V domains shown)
VH: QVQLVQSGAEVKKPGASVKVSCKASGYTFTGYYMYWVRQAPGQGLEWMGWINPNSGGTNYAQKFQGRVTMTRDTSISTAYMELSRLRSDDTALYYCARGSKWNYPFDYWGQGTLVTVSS
VL: EIVLTQSPGTLSLSPGERATLSCRASQSVSSSYLAWYQQKPGQAPRLLIYGASRRATGIPDRFSGSGSGTDFTLTISRLEPEDFVVYFCQQYVSTPWTFGQGTKVEIKR
notes: It has the same light chain as fully human 37-45; Human IgG1/kappa
For the molecule B3, in the assay with human CTGF [3], the Kd was determined as 0.037 nM. In the assay with human CTGF [3], this molecule showed a dissociation rate constant (koff) of 0.00016 s⁻¹. The “fold binding activity against CLN1” value with human CTGF [4] was at least 12 times. Besides, the EC50 with monkey CTGF is 0.0086 µg/mL; with human CTGF [2] it was 0.0104 µg/mL; with rat CTGF it was 0.0092 µg/mL; with mouse CTGF, 0.0092 µg/mL.
